Laboratory results reported in patent US20230272086A1 (CHIA TAI TIANQING PHARMACEUTICAL GROUP, published 2023).
Changes are numbered by the printed parent chain.

T1: human ST2 (hST2, Interleukin-1 receptor-like 1 isoform A) on cells (human, UniProt Q01638 19-556)
T1 sequence: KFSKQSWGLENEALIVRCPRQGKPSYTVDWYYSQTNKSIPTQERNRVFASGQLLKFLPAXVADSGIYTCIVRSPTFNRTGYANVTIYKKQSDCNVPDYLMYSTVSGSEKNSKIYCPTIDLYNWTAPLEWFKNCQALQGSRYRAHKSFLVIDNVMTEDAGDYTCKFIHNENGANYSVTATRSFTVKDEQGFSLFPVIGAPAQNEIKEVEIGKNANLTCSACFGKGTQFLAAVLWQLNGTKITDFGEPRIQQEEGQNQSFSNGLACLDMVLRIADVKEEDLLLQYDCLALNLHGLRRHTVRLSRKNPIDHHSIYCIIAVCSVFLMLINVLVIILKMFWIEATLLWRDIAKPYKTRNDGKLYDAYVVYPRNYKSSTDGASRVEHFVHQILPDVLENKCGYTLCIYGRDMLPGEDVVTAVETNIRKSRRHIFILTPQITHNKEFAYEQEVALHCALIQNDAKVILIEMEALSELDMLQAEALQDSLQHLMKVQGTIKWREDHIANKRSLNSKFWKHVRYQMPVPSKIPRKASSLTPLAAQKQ

B1: Chimeric 7D1 (antibody, human IgG2, kappa, V domains shown)
VH: QVQLQQSGAELVRPGASVTLSCKASGYTFTDYEMHWVKQTPVHGLDWIGTIDPETGDTAYNQKFKGRATLTADKSSSTAYMELSSLTSEDSAVYYCTRYSYTNSPYGMDYWGQGTSVTVSS
VL: DVVMTQTPKFLLVSAGDRVTITCKASQSVSNDVAWYQQKPGQSPKLLIYYASNRYTGVPDRFTGSGYGTDFTFTINTVQAEDLAVYFCQQDYSSPYTFGGGTKLEIKR
notes: also called xi7D1
B2: Chimeric 31C8 (antibody, human IgG2, kappa, V domains shown)
VH: QVQLQQSGPELVRPGASVTLSCKASGYIFIDSEMHWVKQTPVHGLEWIGAIDPETGDTVYNQKFKGKATLTADKSSSTASMELSSLTSEDSAVYYCTGSTTDYYFAYWGQGTTLTVSS
VL: DIVMTQAAFSNPVTLGTSASISCRSSKSLLHSNGIIYLYWYLQKPGQSPQLLIYQMSNLASGVPDRFSSSGSGTDFTLRISRVEAEDVGVYYCAQNLELPFTFGSGTKLEIKR
notes: also called xi31C8
B3: Chimeric 3C6 (antibody, human IgG2, kappa, V domains shown)
VH: QVQLQQSGAEVVRPGASVTLSCKASDYTITDYEMHWVKQTPVHGLEWIGAIDPETGDTAYSQNFKGKATLTADESSSTAYMELSSLTSEDSAVYYCSRSATDYYFASWGQGTTLTVSS
VL: B2 VL with F9I, I21M, I36T, Q47H, R79K
notes: also called xi3C6
B4: Chimeric 26A1 (antibody, human IgG2, kappa, V domains shown)
VH: B2 VH with P9A, G26D, I30T, M34I, P41L, V59A, S80Y, D90G, T97S, Y103C
VL: B2 VL
notes: also called xi26A1
B5: RG6149 (antibody Ab2 in CN104334582, prepared in-house) (antibody, human IgG2, kappa, V domains shown)
VH: EVQLVQSGAEVKKPGESLKISCKGSGYSFTNYWIGWVRQMPGKGLEWMGIIYPGNSDTRFSPSFQGQVTISADKSITTAYLQWSSLKASDTAMYYCARHGTSSDYYGLDVWGQGTTVTVSS
VL: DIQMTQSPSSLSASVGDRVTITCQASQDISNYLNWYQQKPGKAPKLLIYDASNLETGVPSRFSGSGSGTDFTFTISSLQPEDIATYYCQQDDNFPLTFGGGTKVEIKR
notes: Control anti-ST2 antibody
B6: Humanized 31C8-1.1 (antibody, human IgG2, kappa, V domains shown)
VH: EVQLVQSGAEVKKPGATVKISCKASGYIFIDSEMHWVQQAPGKGLEWMGAIDPETGDTVYAEKFQGRVTITADKSSSTAYMELSSLRSEDTAVYYCTGSTTDYYFAYWGQGTLVTVSS
VL: DIQMTQSPSSLSASVGDRVTITCRSSKSLLHSNGIIYLYWYQQKPGKAPKLLIYQLSNLASGVPSRFSSSGSGTDFTLTISSLQPEDFATYYCAQNLELPFTFGQGTKVEIKR
notes: also called hz31C8-1.1; hz31C81-1.1
B7: Humanized 31C8-1.2 (antibody, human IgG2, kappa, V domains shown)
VH: B6 VH with E1Q, E10K, E62K, Q65K
VL: B6 VL
notes: also called hz31C8-1.2; hz31C81-1.2
B8: GSK3772847 (antibody STLM208 in CN104411333, prepared in-house) (antibody, human IgG2, kappa, V domains shown)
VH: EVQLLESGGGLVQPGGSLRLSCAASGFTFSIYDMIWVRQAPGKGLEWVSSIRGEGGGTYYADSVKGRFTISRDNSKNTLYLQMNSLRAEDTAVYYCARDPWSTEGSFFVLDYWGQGTLVTVSS
VL: EIVLTQSPATLSLSPGERATLSCRASQSVDDDLAWYQQKPGQAPRLLIYDASNRATGIPARFSGSGSGTDFTLTISSLEPEDFAVYYCQQYITAPLTFGQGTKVEIKR
notes: Control anti-ST2 antibody

target: T1, human ST2 (hST2, Interleukin-1 …); assay: cell-based or functional assay

In order of rising “IC50, blocking of the IL33/ST2 signaling (NFκB luciferase reporter, HEK293T-hST2-NFκB-Luciferase cells, 50 pM hIL33 protein SEQ ID NO: 8)” value:
1. B1  0.12 nM
2. B3  0.673 nM
3. B2  2.53 nM
4. B4  7.57 nM
5. B5  11.9 nM

target: T1, human ST2 (hST2, Interleukin-1 …); assay: flow cytometry on HEK293T-hST2-NFκB-Luciferase cells
Procedure: 3 × 10⁵ HEK293T-hST2-NFκB-Luciferase or HEK293T-Cyno-ST2-NFκB-Luciferase cells were added to a 96-well culture plate. Serially diluted anti-ST2 antibodies (serially diluted 4-fold from an initial concentration of 667 nM to 8 concentrations in binding assays with the HEK293T-hST2-NFκB-Luciferase cells; serially diluted 4-fold from an initial concentration of 400 nM to 8 concentrations in binding assays with the HEK293T-Cyno-ST2-NFκB-Luciferase cells) were added to the cell suspensions. After the plate was incubated at room temperature for 60 min, the cells were washed 3 times with PBS. […] The cells were washed 3 times with PBS and resuspended in 100 µ1L of PBS, and then the fluorescence signals were analyzed and detected using a flow cytometer (BD, Accuri C6). The binding capacity of the anti-ST2 antibodies to hST2 and cyno-ST2 on the cell line surfaces was measured in terms of the mean fluorescence intensity (MFI) of staining. The data were analyzed using GraphPad Prism5, and the EC₅₀ values were calculated. The EC₅₀ values for the binding of the anti-ST2 chimeric antibodies to hST2 and Cyno-ST2 at the cellular level are shown in Table 8 and FIGS. 7-8.
The humanized antibodies hz31C81-1.1 (the amino acid sequence of the heavy chain set forth in SEQ ID NO: 75 and the amino acid sequence of the light chain set forth in SEQ ID NO: 81) and hz31C8-1.2 (the amino acid sequence of the heavy chain set forth in SEQ ID NO: 77 and the amino acid sequence of the light chain set forth in SEQ ID NO: 81) were subjected to affinity, binding, blocking and cell function analyses using the methods described in Example 4, Example 5, Example 6, Example 7, Example 8, Example 9 and Example 10. In the present disclosure, “hz” and “xi” denote humanized antibodies and chimeric antibodies, respectively; for example, “hz31C81-1.1” and “hz31C81-1.2” represent humanized 31C81-1.1 and 31C81-1.2 antibodies, and “xi31C8” represents a chimeric 31C8 antibody.

In order of rising EC50:
1. B6  0.384 nM
2. B2  0.405 nM
3. B7  0.468 nM
4. B5  0.581 nM
5. B8  0.676 nM

target: recombinant protein containing hST2 extracellular domain with human antibody heavy chain Fc tag (hST2-ECD-hFc) (human); assay: competition ELISA, coated hST2-ECD-hFc, antibody then biotin-labeled hIL33 Avitag (competitor)
Procedure: Whether the anti-ST2 antibodies were able to block the binding of hIL33 to hST2 was determined based on ELISA. A high-adsorption 96-well plate was coated with 2 µg/mL hST2-ECD-hFc at 100 µL/well and incubated overnight at 4° C. After the antigen not adsorbed was well washed off, the non-specific binding sites were blocked with a blocking buffer (PBST containing 1% bovine serum albumin). After the plate was washed three times with a washing buffer (PBST, PBS containing 0.05% (v/v) Tween 20), the anti-ST2 antibodies (serially diluted 2-fold from an initial concentration of 66.67 nM to 8 concentrations) were added at 100 µL/well, and the plate was incubated at 37° C. for 1 h After the plate was washed 3 times with the washing buffer, 100 µL of biotin-labeled hIL33 Avitag (with a concentration of 0.1 µg/mL) was added to each well, and the plate was incubated at 37° C. for 1 h. After the plate was washed 3 times with the washing buffer, a 1:1000 diluted secondary antibody Avidin HRP (Jackson immunoresearch, 016-030-084) was added at 100 µL/well, and the plate was incubated at room temperature for 1 h After the plate was washed with the washing buffer, the substrate TMB solution (Thermo, 00-4201-56) was added at 100 µL/well, and the plate was incubated at room temperature for 3 min. 50 µL of a stop solution (2 N H₂SO₄) was added to terminate the reactions. Colorimetric signals were generated and read at 450 nm using a plate reader (PE, Envision). The data were analyzed using GraphPad Prism5, and the IC₅₀ values were calculated.
The humanized antibodies hz31C81-1.1 (the amino acid sequence of the heavy chain set forth in SEQ ID NO: 75 and the amino acid sequence of the light chain set forth in SEQ ID NO: 81) and hz31C8-1.2 (the amino acid sequence of the heavy chain set forth in SEQ ID NO: 77 and the amino acid sequence of the light chain set forth in SEQ ID NO: 81) were subjected to affinity, binding, blocking and cell function analyses using the methods described in Example 4, Example 5, Example 6, Example 7, Example 8, Example 9 and Example 10.

In order of rising IC50:
1. B6  1.89 nM
2. B2  1.93 nM
3. B5  2.15 nM
4. B7  2.24 nM
5. B8  2.53 nM
